Key:
[1] = biological target: nucleosome core particle carrying a methyllysine analogue of histone H3K9 (H3Kc9me3) (Xenopus laevis); experiment: BLI
[2] = biological target: BAH domain of human TNRC18 (amino acids 2785–2968) (human) (UniProt O15417); experiment: ITC
[3] = biological target: TNRC18 BAH domain, 2785-2968 (UniProt O15417); experiment: isothermal titration calorimetry; settings: reference: H3(1–22)K9me3 peptide; sites T11
[4] = biological target: T1, amino acids 718–792 of TNRC18 (Sin3-interaction motif of TNRC18) (human, UniProt O15417 718-792); experiment: ITC
T1 sequence (peptide, looked up): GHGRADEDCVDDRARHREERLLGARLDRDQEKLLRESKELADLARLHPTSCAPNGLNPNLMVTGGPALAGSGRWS

Chain of BAH domain of human TNRC18 (amino acids 2785–2968) (human) (O15417 2785-2968): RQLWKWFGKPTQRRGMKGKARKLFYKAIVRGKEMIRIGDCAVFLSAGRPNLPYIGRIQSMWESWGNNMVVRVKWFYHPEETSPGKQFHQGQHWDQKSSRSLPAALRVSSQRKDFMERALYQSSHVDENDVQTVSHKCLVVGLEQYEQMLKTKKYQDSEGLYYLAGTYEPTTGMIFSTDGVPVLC

BAH domain of human TNRC18 (amino acids 2785–2968) (from UniProt O15417 2785-2968) (domain or fragment)
Kd [1]: 0.0188 µM

H3K9me2 peptide
Kd [2]: 252 µM

histone H3 1-22 (from UniProt P68431) H3(1–22)K9me3 T11ph peptide
binding against the reference [3]: same

B1: PAH domain of Sin3 (domain or fragment)
chain: QRLKVEDALSYLDQVKLQFGSQPQVYNDFLDIMKEFKSQSIDTPGVISRVSQLFKGHPDLIMGFNTFLPPG
Kd [4]: 104 µM
